# US9744220B2, “Compositions and methods for treating inflammatory diseases” (priority 2013, dated 2017)
# B1: sPDNF: N-terminal short-form of T cruzi PDNF that contains Trk-binding sites, recombinant; amino acids 1-588 of SEQ ID NO: 2; JR-100 is the commercial name (protein, listed as Trypanosoma cruzi)
# chain: MGKTVVVASRMFWLMFFVPLLLAICPSEPAYALAPGSSRVELFKRKNSTVPFEDKAGKVTERVVHSFRLPALVNVDGVMVAIADARYDTSNDNSLIDTVAKYSVDDGETWETQIAIKNSRVSSVSRVVDPTVIVKGNKLYVLVGSYYSSRSYWSSHGDARDWDILLAVGEVTKSTAGGKITASIKWGSPVSLKKFFPAEMEGMHTNQFLGGAGVAIVASNGNLVYPVQVTNKKKQVFSKIFYSEDDGKTWKFGKGRSDFGCSEPVALEWEGKLIINTRVDWKRRLVYESSDMEKPWVEAVGTVSRVWGPSPKSNQPGSQSSFTAVTIEGMRVMLFTHPLNFKGRWLRDRLNLWLTDNQRIYNVGQVSIGDENSAYSSVLYKDDKLYCLHEINTDEVYSLVFARLVGELRIIKSVLRSWKNWDSHLSSICTPADPAASSSESGCGPAVTTVGLVGFLSGNASQNVWEDAYRCVNASTANAERVRNGLKFAGVGGGALWPVSQQGQNQRYRFANHAFTLVASVTIHEAPRAASPLLGASLDSSGGKKLLGLSYDEKHQWQPIYGSTPVTPTGSWETGKRYHLVLTMANKI
# Tests used:
# primary cardiomyocytes = experiment: sPDNF stimulation of primary cardiomyocytes, chemokine transcripts by qPCR; format: cell-based, mouse; conditions: 3 hr, dose-dependent
# Experimental: FIG. 7A is a graph depicting MCP-1 and FKN expression in cardiomyocytes of mice infected with T cruzi. FIG. 7B is a graph depicting MCP-1 and FKN expression in cardiac fibroblasts of mice infected with T cruzi. T cruzi infection: Primary cultures of mouse cardiomyocytes (FIG. 7A) and cardiac fibroblasts (FIG. 7B) were plated in 6-well plates, infected with T cruzi Tulahuen strain (MOI=10) for 3, 24, and 72 hr, and MCP-1 and FKN transcripts were quantified by qPCR. Chemokine gene expression was normalized to HPRT and fold change calculated relative to uninfected cells. Points represent mean±SD fold change expression of triplicate samples. The experiment was repeated, and similar results were obtained. FIG. 7C is a graph depicting MCP-1 and FKN expression in cardiomyocytes of mice injected with sPDNF. FIG. 7D is a graph depicting MCP-1 and FKN expression in cardiac fibroblasts of mice injected with sPDNF. sPDNF stimulation: Primary cardiomyocytes (FIG. 7C) and cardiac fibroblasts (FIG. 7D) were plated in 6-well plates, serum starved overnight, then stimulated with the indicated concentration of sPDNF (3 hr), and MCP-1 and FKN transcripts were quantified by qPCR. Chemokine gene expression was normalized to HPRT and fold change calculated relative to vehicle-treated cells; *P<0.05, **P<0.01, and ***P<0.005. […]
# MCP-1 and FKN = experiment: IV sPDNF into TLR-deficient MyD88-/- mice, MCP-1 and FKN; format: in vivo; conditions: IV 100 μg per mouse, 3 hr post-injection
# Experimental: Wild type C57BL/6 mice were used in the results depicted in FIGS. 11A-11D. FIG. 11A is a graph depicting that a single dose of intravenous (IV) sPDNF increased MCP-1 and FKN transcripts in the heart in a pulse-like response. Groups of mice (2 per group) were injected with vehicle (Veh) or sPDNF (150 μg/mouse) and sacrificed at 3, 6, 9 and 12 hr post-injection, and cardiac MCP-1 and FKN transcripts were quantified by qPCR. Points represent fold change of the mean±SD relative to Veh injected mice; *P<0.05 and **P<0.01. Experiment repeated three times with similar results; liver also responded with similar pulselike kinetics. FIG. 11B is a graph depicting that organ distribution of MCP-1 increased following a single IV dose of sPDNF. Experimental design analogous to that summarized above. FIG. 11C is a graph showing that a single IV dose of sPDNF augments MCP-1 and FKN transcripts dose-dependently in the heart. […] For the results depicted in FIGS. 11C and 11D, groups of three mice were injected with various doses of sPDNF, and heart and liver harvested 3 hr post-injection to quantify MCP-1 and FKN by qPCR. […]
# To ensure that the response observed in wild type mice was not due to TLR activation, MCP-1 and FKN response to IV sPDNF was assessed in TLR-deficient MyD88^−/− mice (23).
molecule,measurement,setting,value
B1,FKN transcripts,primary cardiomyocytes,increase
same,MCP-1 transcripts,primary cardiomyocytes,increase
same,expression of FKN in the heart and liver,MCP-1 and FKN,sharp increase
same,expression of MCP-1 in the heart and liver,MCP-1 and FKN,sharp increase
